In patent publication US20180312587A1 (ADURO BIOTECH HOLDINGS EUROPE B V, published 2018):

Columns and labels:
[1] = biological target: T1, human SIRPα variant 1 (human, UniProt P78324 31-504); assay: CELISA, CHO-K1 transfectants; average of two experiments
T1 construct: full length ORF on transfected CHO-K1 or HEK293 cells; entry includes the signal peptide; also called hSIRPαV1; SIRPαV1
Description: (§1) The binding specificity of antibody hSIRPα.50A to hSIRPα was compared antibody KWAR23 (Canadian Patent 2939293 A1), in a CELISA format. CHO-K1 cells were transiently transfected with hSIRPαV1, hSIRPαV2, hSIRPβ1, and hSIRPγ (GenBank accession: NM_018556.3) (SEQ ID NO: 39) cDNAs. Subsequently, hSIRPα binding was assessed by CELISA using CHO-K1.hSIRPαV1, CHO-K1.hSIRPαV2, CHO-K1.hSIRPβ1, and CHO-K1.hSIRPγ cells. Detection of bound antibody was performed with goat-anti-mouse IgG-HRP (Southern Biotech) for mouse antibodies including hSIRPα.50A and control antibodies or, alternatively, with goat-anti-human IgG-HRP conjugate (Jackson Immuno Research) for the KWAR23 antibody. KWAR23 (SEQ ID NO: 130; SEQ ID NO: 131) was expressed as a chimeric human IgG4 kappa antibody in CHO cells. As shown in FIG. 2 and the following Table 9, KWAR23 antibody cross-reacts with all members of the SIRP receptor family tested: it binds to hSIRPαV1, hSIRPαV2, hSIRPβ1, and hSIRPγ.
(§2) In addition, the specificity of hSIRPα.50A for all known of hSIRPα alleles (allelic variants as described by Takenaka et al., 2007, Nat Immunol. 8:1313-1323) was further investigated by CELISA using the same strategy as above. To this end, hSIRPα.50A binding was assessed using CHO-K1 cells that were transiently transfected with cDNAs encoding full length hSIRPαV1, hSIRPαV2, hSIRPαV3 (NA07056_V3) (SEQ ID NO: 43), hSIRPαV4 (NA11832_V4) (SEQ ID NO: 45), hSIRPαV5 (NA18502_V5) (SEQ ID NO: 47), hSIRPαV6 (NA18507_V6) (SEQ ID NO: 49), hSIRPαV8 (NA18570_V8) (SEQ ID NO: 51), and hSIRPαV9 (NA18943_V9) (SEQ ID NO: 53).

[2] = biological target: T2, human SIRPα variant 2 (human, UniProt P78324 31-504); assay: as above
T2 construct: full length ORF on transfected CHO-K1 cells; also called hSIRPαV2; SIRPαV2
Description: as §1, §2

[3] = biological target: T3, hSIRPαV3 (NA07056_V3) (human, UniProt P78324 31-504); assay: as above
T3 construct: also called human SIRPαV3
Description: as §1, §2

[4] = biological target: T4, hSIRPαV5 (NA18502_V5) (human, UniProt P78324 31-504); assay: as above
T4 construct: also called human SIRPαV5
Description: as §1, §2

[5] = biological target: T5, hSIRPαV6 (NA18507_V6) (human, UniProt P78324 31-504); assay: as above
T5 construct: also called human SIRPαV6
Description: as §1, §2

[6] = biological target: T6, hSIRPαV8 (NA18570_V8) (human, UniProt P78324 31-504); assay: as above
T6 construct: also called human SIRPαV8
Description: as §1, §2

[7] = biological target: T7, hSIRPαV9 (NA18943_V9) (human, UniProt P78324 31-504); assay: as above
T7 construct: also called human SIRPαV9
Description: as §1, §2

[8] = biological target: T8, hSIRPα expressed on primary human cells (human, UniProt P78324 31-504); assay: flow cytometry, primary CD14+ enriched monocytes, donor 1
T8 construct: whole, on cells; also called hSIRPα on primary human CD14+ monocytes; on primary human granulocytes
Description: Next, the binding of hSIRPα.50A to hSIRPα expressed on primary human CD14⁺ monocytes was investigated. In addition, the ability of hSIRPα.50A to block the interaction between hSIRPα and recombinant hCD47/Fc-protein was assessed. For this purpose, CD14+ monocytes were isolated from Ficoll-purified human peripheral blood mononuclear cells (PBMCs) using RosetteSep human monocyte enrichment cocktail (Stemcell). The percentage of monocytes present after the enrichment was determined by flow cytometry on the FACSVerse (BD Biosciences) based on CD14 staining using an APC-Cy7-conjugated mouse-anti-human CD14 detection antibody (BD Biosciences). […] After this labeling procedure, cells were washed two times, resuspended in PBS/1% BSA containing 0.1 μg/mL DAPI (BioLegend), and analysed by flow cytometry on the FACSVerse (BD Biosciences). Data were processed and analysed with FlowJo V10 software (FlowJo, LLC).
To assess the blocking ability of hSIRPα.50A, CD14+ enriched monocytes cells were seeded in 96-well round bottomed tissue culture plates and incubated for 45 minutes with FcR Blocking Reagent (Miltenyi Biotec) and hSIRPα.50A antibody (200 μg/mL and dilutions thereof) in PBS/1% BSA at 4° C. […] After this labeling procedure, cells were washed two times, resuspended in PBS/1% BSA containing 0.1 μg/mL DAPI (BioLegend), and analysed by flow cytometry on the FACSVerse (BD Biosciences). […]

T7 sequence (P78324 31-504 G109S limits assumed): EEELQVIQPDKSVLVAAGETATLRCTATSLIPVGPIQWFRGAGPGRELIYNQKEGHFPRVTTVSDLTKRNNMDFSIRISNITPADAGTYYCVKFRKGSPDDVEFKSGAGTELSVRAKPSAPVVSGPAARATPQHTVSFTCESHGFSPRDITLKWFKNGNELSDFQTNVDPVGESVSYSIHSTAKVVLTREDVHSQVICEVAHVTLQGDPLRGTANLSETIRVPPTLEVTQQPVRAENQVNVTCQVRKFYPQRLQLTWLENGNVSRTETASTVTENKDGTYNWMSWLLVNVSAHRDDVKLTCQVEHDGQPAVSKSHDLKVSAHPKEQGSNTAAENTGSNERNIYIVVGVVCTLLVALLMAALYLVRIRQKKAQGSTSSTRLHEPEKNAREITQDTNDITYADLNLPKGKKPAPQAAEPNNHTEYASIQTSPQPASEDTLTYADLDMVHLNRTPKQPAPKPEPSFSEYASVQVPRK
T3 sequence (P78324 other isoform, or with tags, fused parts or gaps limits assumed): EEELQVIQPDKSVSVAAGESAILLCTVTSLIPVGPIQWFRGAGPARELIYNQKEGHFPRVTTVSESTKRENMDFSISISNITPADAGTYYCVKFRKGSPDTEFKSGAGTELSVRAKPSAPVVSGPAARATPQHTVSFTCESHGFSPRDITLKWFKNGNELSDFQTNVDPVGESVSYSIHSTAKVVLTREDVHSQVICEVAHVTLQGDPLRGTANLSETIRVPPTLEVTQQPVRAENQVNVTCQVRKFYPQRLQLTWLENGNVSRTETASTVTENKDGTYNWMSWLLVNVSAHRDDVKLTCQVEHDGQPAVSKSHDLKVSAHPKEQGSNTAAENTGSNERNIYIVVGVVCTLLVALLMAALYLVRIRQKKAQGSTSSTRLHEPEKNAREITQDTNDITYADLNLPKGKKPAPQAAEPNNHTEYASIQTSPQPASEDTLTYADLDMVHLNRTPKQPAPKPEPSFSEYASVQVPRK
T8 sequence (P78324 31-504): as the sequence (P78324 31-504 G109S limits assumed) above, with S79G counted along it
T1 sequence (P78324 31-504 limits assumed, change not shown): as the sequence (P78324 31-504 G109S limits assumed) above, with S79G counted along it
T6 sequence (P78324 other isoform, or with tags, fused parts or gaps limits assumed): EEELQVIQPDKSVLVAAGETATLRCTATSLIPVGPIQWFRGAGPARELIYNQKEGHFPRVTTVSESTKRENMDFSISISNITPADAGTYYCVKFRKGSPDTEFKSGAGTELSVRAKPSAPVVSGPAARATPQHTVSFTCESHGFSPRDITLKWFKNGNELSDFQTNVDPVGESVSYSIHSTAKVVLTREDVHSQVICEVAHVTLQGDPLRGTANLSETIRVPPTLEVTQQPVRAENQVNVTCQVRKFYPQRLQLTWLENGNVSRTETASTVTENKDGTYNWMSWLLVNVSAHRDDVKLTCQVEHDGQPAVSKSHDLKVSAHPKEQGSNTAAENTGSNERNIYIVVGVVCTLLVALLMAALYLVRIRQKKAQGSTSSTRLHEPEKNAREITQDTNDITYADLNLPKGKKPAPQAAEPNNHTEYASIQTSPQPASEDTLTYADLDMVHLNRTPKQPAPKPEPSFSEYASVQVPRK
T5 sequence (P78324 31-504 S105P limits assumed): as the sequence (P78324 31-504 G109S limits assumed) above, with S75P, S79G counted along it
T4 sequence (P78324 other isoform, or with tags, fused parts or gaps limits assumed): as the sequence (P78324 31-504 G109S limits assumed) above, with S12F, S79G counted along it
T2 sequence (P78324 other isoform, or with tags, fused parts or gaps mutant limits assumed): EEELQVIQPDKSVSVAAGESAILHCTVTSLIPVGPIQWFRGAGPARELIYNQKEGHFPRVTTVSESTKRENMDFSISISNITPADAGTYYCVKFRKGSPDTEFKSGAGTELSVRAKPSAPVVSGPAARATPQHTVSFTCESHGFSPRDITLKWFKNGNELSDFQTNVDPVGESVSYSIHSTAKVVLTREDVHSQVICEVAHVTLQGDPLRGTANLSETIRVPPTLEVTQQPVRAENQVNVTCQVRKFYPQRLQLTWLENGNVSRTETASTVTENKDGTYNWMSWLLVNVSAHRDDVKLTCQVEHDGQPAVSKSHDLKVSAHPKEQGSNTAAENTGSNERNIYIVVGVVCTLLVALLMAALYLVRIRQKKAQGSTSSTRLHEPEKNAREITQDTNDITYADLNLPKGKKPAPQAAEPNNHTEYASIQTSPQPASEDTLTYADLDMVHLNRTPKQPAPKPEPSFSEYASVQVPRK

B1: hSIRPα.50A (antibody, V domains shown)
VH: QVQLQQSGPELVKPGASVRISCKASGFTFTNYYIHWVKQRPGQGLEWIGWIYPGNVNTKYNEKFKAKATLTADKSSTTAYMQLSSLASEDSAVYFCARPTIIATDFDVWGAGTTVTVSS
VL: DIVMTQSHKFMSTSVGDRVNITCKASQGVGTAVGWYQQKPGQSPRLLIYWASTRHTGVPDRFTGSGSGTDFSLAISNVQSEDLADYFCQQYSTYPFTFGGGTNLEIK
notes: light chain constant domain not tied; also called mouse hSIRPα.50A; hSIRPα.50A.mIgG1
[1]
  EC50: 0.936 nM
[2]
  EC50: 0.665 nM
[3]
  EC50: 0.688 nM
[4]
  EC50: 0.765 nM
[5]
  EC50: 0.954 nM
[6]
  EC50: 0.644 nM
[7]
  EC50: 0.733 nM
[8]
  EC50: 7.38 nM
